Values of other authors in patent US20220017621A1, “Combination Therapy for Cancer” (Merck Patent GmbH, priority 2016, published 2022).

Biological target: TGFβ1 (Homo sapiens, UniProt P01137)
Conditions: binding of TGFβ1

Sequence of TGFβ1 (P01137 279-390 limits assumed, species assumed): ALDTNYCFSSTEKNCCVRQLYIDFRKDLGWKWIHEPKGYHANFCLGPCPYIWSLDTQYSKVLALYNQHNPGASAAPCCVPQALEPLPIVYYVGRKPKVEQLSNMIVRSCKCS

Kd: 0.2 nM
B1: recombinant soluble TGFβRII: recombinant soluble extracellular domain of TGFβRII, from the literature (Lin et al.) (protein, UniProt P37173 23-166, looked up)
extracellular domain: TIPPHVQKSVNNDMIVTDNNGAVKFPQLCKFCDVRFSTCDNQKSCMSNCSITSICEKPQEVCVAVWRKNDENITLETVCHDPKLPYHDFILEDAASPKCIMKEKKKPGETFFMCSCSSDECNDNIIFSEEYNTSNPDLLLVIFQ
modifications: extracellular domain
